Data from PMC5855701.

Key:
[1] = molecular target: GST-CA-Rac1 (constitutively-active Rac1 fused to GST) (UniProt P63000); experiment: pull-down; GST fusion (GST-RacWT, GST-CA-Rac1 or GST-alone) on glutathione-agarose beads; 550-1000 ug total lysate of HP cells, unstimulated or treated with TGFβ1 (10 ng/mL) up to 60 min; 2 h at 4 °C; three washes; immunoblot for Trio or CdGAP (LiCor)
[2] = molecular target: GST-Rac1 (wild type Rac1 fused to GST) (UniProt P63000); experiment: as above

CdGAP, sequence (Q2M1Z3 whole entry): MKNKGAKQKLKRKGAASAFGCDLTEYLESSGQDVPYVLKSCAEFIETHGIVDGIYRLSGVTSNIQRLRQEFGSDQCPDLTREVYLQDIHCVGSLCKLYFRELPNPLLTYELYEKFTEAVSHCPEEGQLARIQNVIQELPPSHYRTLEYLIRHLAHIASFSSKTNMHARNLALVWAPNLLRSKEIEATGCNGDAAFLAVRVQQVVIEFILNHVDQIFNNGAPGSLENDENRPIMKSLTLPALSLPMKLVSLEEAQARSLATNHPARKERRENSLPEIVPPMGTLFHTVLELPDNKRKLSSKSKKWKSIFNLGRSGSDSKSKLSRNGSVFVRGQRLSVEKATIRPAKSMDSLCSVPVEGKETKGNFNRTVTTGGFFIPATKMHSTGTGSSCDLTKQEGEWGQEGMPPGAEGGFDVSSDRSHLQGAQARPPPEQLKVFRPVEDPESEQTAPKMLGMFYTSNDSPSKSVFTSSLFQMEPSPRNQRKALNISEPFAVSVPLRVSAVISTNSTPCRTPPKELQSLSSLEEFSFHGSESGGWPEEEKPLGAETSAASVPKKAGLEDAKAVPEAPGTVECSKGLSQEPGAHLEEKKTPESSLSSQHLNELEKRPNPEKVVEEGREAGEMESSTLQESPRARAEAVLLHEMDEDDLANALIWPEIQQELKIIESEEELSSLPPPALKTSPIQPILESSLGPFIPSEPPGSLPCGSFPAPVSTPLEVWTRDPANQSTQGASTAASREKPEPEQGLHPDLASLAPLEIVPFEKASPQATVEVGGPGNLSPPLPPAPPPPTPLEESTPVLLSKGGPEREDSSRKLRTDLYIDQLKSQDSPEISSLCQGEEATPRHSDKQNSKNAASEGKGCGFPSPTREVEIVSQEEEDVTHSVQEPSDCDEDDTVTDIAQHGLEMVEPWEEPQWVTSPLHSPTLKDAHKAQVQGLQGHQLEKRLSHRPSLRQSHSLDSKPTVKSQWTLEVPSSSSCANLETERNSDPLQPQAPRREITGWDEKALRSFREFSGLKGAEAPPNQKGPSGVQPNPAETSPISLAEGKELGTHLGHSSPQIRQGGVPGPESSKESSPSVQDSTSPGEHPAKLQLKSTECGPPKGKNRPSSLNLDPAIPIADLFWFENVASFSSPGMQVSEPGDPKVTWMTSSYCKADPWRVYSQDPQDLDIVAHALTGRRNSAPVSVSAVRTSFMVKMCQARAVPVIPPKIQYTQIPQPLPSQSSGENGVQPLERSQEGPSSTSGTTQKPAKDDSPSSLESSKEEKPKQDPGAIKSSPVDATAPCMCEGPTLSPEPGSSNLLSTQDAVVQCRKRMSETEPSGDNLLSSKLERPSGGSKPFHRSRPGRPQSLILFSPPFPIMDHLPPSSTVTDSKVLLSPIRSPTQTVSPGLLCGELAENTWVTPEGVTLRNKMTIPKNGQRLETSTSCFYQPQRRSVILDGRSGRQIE

| Substance | fold change of CdGAP pulled down by GST-CA-Rac1, 30 min TGFβ1 against 0 min [1] | fold change of CdGAP pulled down by GST-CA-Rac1, 45 min TGFβ1 against 0 min [1] | fold change of CdGAP pulled down by GST-CA-Rac1, 60 min TGFβ1 against 0 min [1] | fold change of Trio bound to GST-Rac1, 45 min TGFβ1 against unstimulated [2] |
| --- | --- | --- | --- | --- |
| CdGAP (from UniProt Q2M1Z3 1-1444) (natural protein) | 1.55 fold | 1.56 fold | 1.53 fold |  |
| Trio, O75962 1-3097 (natural protein; other documents disagree on this pair) |  |  |  | 1.82 fold |
